Measured values: patent US20100113582A1

Key:
[1] = molecular target: YFP-tagged wild-type HIV-1 protease subunit (PRWT^YFP) (HIV-1 (HIV-1NL4-3)) (UniProt P12497); assay: FRET, acceptor photobleaching, co-transfected Cos-7 cells, no-drug control of FIG. 2D
[2] = molecular target: YFP-tagged wild-type HIV-1 protease subunit (PRWT^YFP) (HIV-1 (HIV-1NL4-3)) (UniProt P12497); assay: FRET, acceptor photobleaching, co-transfected Cos-7 cells (n=23)
[3] = molecular target: YFP-tagged wild-type HIV-1 protease subunit (PRWT^YFP) (HIV-1 (HIV-1NL4-3)) (UniProt P12497); assay: FRET, acceptor photobleaching, co-transfected Cos-7 cells, no-drug control of FIG. 2F
[4] = molecular target: YFP-tagged wild-type HIV-1 protease subunit (PRWT^YFP) (HIV-1 (HIV-1NL4-3)) (UniProt P12497); assay: FRET, acceptor photobleaching, co-transfected Cos-7 cells
[5] = molecular target: HIV-PRD29A^YFP (HIV-1 (HIV-1NL4-3)) (UniProt P12497); assay: FRET-HIV-1 assay, co-transfected Cos-7 cells
[6] = molecular target: HIV-PRD29N^YFP (HIV-1 (HIV-1NL4-3)) (UniProt P12497); assay: FRET-HIV-1 assay, co-transfected Cos-7 cells
[7] = molecular target: HIV-PRT26A^YFP (HIV-1 (HIV-1NL4-3)) (UniProt P12497); assay: FRET-HIV-1 assay, co-transfected Cos-7 cells
[8] = molecular target: HIV-PRR87K^YFP (HIV-1 (HIV-1NL4-3)) (UniProt P12497); assay: FRET-HIV-1 assay, co-transfected Cos-7 cells

Work on “CFP-tagged wild-type HIV-1 protease subunit (PRWT^CFP) (from UniProt P12497) (enzyme)” yielded a ratio of ECFP fluorescence after photobleaching to before photobleaching [1] of 1.27, a CFP^A/B ratio [2] of 1.24 and a YFP^A/B ratio [2] of 0.47. It also gave an FRET ratio [3] of 1.29, a CFP^A/B ratio [4] of 1.38 and a YFP^A/B ratio [4] of 0.17. For the same substance, the ratio of CFP fluorescence after photobleaching to CFP fluorescence prior to photobleaching [4] was 1.19.

“HIV-PRD29A^CFP (from UniProt P12497) (enzyme)” was tested, and the average CFP A/B ratio [5] was less than 1.

With “HIV-PRD29N^CFP (from UniProt P12497) (enzyme)” the average CFP A/B ratio [6] was less than 1.

Substance “HIV-PRT26A^CFP (from UniProt P12497) (enzyme)” has an average CFP A/B ratio [7] of less than 1.

“HIV-PRR87K^CFP (from UniProt P12497) (enzyme)” gave an average CFP A/B ratio [8] of less than 1.
